Results from patent US8242083B2, “Kinase substrates” (PerkinElmer Health Sciences, Inc., priority 2008, dated 2012).

What was measured:
Format in all cases: biochemical
[1] = biological target: T1, ITK (Homo sapiens, UniProt Q08881); assay: TR-FRET kinase assay, ITK; conditions: Kinase Concentration 0.5 nM; 50 nM ULight-labeled substrate, 200 micromolar ATP, 2 hours
T1 sequence (Q08881 1-620): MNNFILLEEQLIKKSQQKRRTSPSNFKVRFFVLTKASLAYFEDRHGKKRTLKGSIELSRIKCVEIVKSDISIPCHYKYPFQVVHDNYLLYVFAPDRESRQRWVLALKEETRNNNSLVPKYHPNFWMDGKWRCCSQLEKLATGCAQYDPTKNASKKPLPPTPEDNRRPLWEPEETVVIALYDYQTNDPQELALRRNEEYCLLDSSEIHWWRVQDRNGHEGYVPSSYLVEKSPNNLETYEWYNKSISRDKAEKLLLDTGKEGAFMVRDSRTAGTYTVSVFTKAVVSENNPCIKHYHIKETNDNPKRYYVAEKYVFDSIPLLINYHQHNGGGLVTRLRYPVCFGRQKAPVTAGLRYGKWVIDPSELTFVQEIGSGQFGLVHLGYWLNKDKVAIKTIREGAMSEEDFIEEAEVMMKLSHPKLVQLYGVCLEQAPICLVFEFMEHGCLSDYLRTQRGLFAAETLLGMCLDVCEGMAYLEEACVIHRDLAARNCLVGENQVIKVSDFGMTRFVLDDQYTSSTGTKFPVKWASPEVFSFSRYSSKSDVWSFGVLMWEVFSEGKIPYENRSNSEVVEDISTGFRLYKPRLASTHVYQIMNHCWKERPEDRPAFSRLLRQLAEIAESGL
Protocol: (§1) TR-FRET kinase assays are performed under standardized conditions: various individual kinases are incubated with 50 nM of kinase substrate BRB1 labeled with the TR-FRET acceptor dye ULight (PerkinElmer) and 200 micromolar ATP in 10 μL of kinase assay buffer (50 mM HEPES pH7.5, 10 mM MgCl2, 3 mM MnCl2, 1 mM EGTA, 2 mM DTT and 0.01% Tween-20) for 2 hours at room temperature. Reactions are stopped with EDTA, and anti-phospho-tyrosine antibodies (clone PT66) labeled with the TR-FRET europium chelate donor dye are added to a final concentration of 2 nM in a final volume of 20 μL. The TR-FRET signal emitted at 665 nm is read one hour after the addition of antibodies using a TR-FRET plate reader such as the Envision® Multilabel Plate reader (PerkinElmer). The emitted signal at 665 nm is proportional to the extent of peptide phosphorylation, Control reactions indicative of background are performed excluding ATP from the reaction.
(§2) Assay conditions are identical to those used described for FIG. 1.

[2] = biological target: LCK (Homo sapiens, UniProt P06239); assay: TR-FRET kinase assay, LCK; conditions: Kinase Concentration 0.5 nM; 50 nM ULight-labeled substrate, 200 micromolar ATP, 2 hours
Chain of LCK (P06239 whole entry, species assumed): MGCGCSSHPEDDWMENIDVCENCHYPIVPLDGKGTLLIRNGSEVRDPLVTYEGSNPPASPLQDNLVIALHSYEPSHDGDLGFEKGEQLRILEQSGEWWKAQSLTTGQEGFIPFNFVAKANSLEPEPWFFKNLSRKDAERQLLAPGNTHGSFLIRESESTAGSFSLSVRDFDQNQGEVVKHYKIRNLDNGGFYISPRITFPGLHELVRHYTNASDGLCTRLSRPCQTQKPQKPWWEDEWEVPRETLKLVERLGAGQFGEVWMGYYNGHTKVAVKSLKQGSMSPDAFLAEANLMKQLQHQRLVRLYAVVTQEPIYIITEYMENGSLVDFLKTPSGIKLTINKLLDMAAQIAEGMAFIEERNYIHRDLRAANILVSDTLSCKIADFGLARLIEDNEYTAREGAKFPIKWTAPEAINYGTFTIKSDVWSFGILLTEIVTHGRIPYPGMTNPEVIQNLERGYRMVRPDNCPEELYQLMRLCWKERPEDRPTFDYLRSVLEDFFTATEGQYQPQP
Protocol: as §1, §2

[3] = biological target: LYNa (Homo sapiens, UniProt P07948); assay: TR-FRET kinase assay, LYNa; conditions: Kinase Concentration 0.5 nM; 50 nM ULight-labeled substrate, 200 micromolar ATP, 2 hours
Chain of LYNa (P07948 whole entry, species assumed): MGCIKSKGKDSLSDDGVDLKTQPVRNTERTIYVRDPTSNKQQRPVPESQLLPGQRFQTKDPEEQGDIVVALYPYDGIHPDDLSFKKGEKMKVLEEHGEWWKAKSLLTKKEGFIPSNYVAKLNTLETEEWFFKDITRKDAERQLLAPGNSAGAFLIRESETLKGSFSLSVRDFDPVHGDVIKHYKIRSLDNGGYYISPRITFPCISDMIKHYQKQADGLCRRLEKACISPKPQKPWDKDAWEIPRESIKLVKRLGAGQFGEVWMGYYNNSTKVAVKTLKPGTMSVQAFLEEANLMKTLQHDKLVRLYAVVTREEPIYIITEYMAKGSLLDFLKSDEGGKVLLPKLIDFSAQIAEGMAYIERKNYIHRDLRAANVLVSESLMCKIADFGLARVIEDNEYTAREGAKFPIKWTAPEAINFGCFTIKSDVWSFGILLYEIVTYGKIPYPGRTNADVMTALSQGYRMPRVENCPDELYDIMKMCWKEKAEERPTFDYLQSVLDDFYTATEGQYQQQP
Protocol: as §1, §2

[4] = biological target: SYK (Homo sapiens, UniProt P43405); assay: TR-FRET kinase assay, SYK; conditions: Kinase Concentration 0.5 nM; 50 nM ULight-labeled substrate, 200 micromolar ATP, 2 hours
Protocol: as §1, §2

[5] = biological target: T2, TNK1 (Homo sapiens, UniProt Q13470); assay: TR-FRET kinase assay, TNK1; conditions: Kinase Concentration 1 nM; 50 nM ULight-labeled substrate, 200 micromolar ATP, 2 hours
T2 sequence (Q13470 1-666): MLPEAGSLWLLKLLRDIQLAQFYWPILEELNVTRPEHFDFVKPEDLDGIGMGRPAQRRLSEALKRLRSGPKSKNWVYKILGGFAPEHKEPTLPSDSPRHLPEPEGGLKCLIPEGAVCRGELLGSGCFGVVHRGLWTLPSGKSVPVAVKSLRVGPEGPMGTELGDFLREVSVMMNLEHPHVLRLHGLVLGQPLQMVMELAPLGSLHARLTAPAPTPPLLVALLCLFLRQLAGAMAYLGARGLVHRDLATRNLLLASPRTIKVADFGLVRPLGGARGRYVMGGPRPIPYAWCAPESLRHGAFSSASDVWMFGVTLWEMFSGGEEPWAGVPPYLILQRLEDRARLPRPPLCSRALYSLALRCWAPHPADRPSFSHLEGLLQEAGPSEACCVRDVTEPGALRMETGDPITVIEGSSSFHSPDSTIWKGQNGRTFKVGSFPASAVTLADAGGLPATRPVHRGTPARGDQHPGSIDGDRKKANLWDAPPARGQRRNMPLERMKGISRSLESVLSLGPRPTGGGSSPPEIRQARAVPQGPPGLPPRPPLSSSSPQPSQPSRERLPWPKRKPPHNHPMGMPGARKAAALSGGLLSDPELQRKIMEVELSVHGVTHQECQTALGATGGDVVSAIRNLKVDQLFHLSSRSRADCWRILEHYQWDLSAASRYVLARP
Protocol: as §1, §2

[6] = biological target: T3, ZAP70 (Homo sapiens, UniProt P43403); assay: TR-FRET kinase assay, ZAP70; conditions: Kinase Concentration 4 nM; 50 nM ULight-labeled substrate, 200 micromolar ATP, 2 hours
T3 sequence (P43403 1-619): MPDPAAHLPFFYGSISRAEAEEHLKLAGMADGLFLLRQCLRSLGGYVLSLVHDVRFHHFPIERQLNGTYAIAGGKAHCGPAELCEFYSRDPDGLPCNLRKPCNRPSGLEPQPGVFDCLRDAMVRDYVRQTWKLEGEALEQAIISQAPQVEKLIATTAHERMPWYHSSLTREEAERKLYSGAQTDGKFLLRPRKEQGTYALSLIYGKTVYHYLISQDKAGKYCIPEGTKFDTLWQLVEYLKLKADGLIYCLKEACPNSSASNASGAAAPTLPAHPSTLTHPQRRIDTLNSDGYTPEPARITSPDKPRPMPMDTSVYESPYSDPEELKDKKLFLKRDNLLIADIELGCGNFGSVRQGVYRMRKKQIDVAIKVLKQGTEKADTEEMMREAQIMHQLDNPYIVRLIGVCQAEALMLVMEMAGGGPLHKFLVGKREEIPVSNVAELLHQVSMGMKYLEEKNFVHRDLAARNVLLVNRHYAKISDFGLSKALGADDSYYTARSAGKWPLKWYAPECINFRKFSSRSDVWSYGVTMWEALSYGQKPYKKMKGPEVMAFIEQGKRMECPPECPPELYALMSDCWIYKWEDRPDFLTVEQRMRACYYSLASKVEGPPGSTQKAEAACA
Protocol: as §1, §2

[7] = biological target: ALK (Homo sapiens, UniProt Q9UM73); assay: TR-FRET kinase assay, ALK; conditions: Kinase Concentration 4 nM; 50 nM ULight-labeled substrate, 200 micromolar ATP, 2 hours
Chain of ALK (Q9UM73 19-1620, species assumed): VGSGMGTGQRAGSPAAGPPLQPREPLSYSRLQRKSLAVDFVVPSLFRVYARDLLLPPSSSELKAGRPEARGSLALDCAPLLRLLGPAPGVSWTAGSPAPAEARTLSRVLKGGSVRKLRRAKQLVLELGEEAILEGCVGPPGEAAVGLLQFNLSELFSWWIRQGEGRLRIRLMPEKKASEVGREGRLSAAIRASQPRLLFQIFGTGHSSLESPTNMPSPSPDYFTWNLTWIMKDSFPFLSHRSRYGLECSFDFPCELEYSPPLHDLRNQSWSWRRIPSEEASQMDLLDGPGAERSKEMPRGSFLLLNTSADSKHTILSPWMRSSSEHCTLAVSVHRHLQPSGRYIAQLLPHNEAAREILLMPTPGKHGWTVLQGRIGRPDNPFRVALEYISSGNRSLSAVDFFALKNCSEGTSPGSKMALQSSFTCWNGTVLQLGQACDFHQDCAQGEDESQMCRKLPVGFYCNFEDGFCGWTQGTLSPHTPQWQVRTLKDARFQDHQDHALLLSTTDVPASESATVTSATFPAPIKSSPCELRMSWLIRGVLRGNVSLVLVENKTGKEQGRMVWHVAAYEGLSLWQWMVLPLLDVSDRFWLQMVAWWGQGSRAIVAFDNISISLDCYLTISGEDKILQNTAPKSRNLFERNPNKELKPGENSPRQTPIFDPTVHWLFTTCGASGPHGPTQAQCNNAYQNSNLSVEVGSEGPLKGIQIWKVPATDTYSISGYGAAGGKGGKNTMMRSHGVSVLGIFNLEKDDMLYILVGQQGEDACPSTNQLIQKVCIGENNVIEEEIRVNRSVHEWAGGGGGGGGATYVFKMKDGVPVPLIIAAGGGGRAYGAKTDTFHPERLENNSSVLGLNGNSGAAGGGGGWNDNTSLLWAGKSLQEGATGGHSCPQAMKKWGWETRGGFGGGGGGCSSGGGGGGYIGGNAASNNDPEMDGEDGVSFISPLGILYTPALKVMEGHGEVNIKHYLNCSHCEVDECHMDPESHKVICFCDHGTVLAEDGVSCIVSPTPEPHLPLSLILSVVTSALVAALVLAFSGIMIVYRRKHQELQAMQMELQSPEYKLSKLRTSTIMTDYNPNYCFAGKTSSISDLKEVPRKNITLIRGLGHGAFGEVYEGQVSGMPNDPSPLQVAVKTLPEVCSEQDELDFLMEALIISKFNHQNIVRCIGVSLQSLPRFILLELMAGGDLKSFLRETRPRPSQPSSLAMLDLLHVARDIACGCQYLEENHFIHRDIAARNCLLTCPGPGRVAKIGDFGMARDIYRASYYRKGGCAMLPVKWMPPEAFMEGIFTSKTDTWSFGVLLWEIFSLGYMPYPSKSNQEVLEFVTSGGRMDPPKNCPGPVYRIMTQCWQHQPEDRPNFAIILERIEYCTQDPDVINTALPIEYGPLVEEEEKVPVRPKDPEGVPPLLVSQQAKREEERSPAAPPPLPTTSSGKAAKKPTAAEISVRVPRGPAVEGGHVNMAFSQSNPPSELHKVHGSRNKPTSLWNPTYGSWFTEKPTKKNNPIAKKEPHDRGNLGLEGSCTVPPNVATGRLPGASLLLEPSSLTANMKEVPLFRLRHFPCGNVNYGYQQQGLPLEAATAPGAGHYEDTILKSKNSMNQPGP
Protocol: as §1, §2

[8] = biological target: EphA5 (Homo sapiens, UniProt P54756); assay: TR-FRET kinase assay, EphA5; conditions: Kinase Concentration 1 nM; 50 nM ULight-labeled substrate, 200 micromolar ATP, 2 hours
Chain of EphA5 (P54756 25-1037, species assumed): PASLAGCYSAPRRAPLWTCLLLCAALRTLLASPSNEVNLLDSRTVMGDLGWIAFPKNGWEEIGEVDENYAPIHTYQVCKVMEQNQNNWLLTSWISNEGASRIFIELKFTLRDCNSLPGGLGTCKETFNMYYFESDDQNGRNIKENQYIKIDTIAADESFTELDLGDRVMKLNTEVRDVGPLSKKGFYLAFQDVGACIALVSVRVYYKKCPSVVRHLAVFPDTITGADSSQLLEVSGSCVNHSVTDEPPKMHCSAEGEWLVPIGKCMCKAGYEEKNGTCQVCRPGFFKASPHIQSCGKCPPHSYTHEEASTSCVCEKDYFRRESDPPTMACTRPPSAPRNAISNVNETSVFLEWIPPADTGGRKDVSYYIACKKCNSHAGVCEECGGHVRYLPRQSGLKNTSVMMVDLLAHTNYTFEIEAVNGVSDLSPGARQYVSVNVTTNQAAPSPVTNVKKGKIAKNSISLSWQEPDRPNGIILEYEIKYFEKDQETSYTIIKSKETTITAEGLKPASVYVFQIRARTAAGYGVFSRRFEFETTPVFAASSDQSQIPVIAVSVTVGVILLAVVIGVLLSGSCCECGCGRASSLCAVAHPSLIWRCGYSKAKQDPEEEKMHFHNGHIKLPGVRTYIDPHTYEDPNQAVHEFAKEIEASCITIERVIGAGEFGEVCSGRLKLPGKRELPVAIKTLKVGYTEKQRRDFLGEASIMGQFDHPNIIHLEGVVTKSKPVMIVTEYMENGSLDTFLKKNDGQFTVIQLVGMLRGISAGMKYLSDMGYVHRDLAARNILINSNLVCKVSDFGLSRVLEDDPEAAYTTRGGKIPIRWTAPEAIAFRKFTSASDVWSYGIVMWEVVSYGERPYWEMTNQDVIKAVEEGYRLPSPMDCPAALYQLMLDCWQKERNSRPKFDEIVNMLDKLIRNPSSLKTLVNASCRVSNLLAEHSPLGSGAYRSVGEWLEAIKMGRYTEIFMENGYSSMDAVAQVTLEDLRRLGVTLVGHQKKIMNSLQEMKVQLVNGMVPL
Protocol: as §1, §2

[9] = biological target: ROR1 (Homo sapiens, UniProt Q01973); assay: TR-FRET kinase assay, ROR1; conditions: Kinase Concentration 20 nM; 50 nM ULight-labeled substrate, 200 micromolar ATP, 2 hours
Protocol: as §1, §2

[10] = biological target: TIE2 (Homo sapiens, UniProt Q02763); assay: TR-FRET kinase assay, TIE2; conditions: Kinase Concentration 0.5 nM; 50 nM ULight-labeled substrate, 200 micromolar ATP, 2 hours
Chain of TIE2 (Q02763 23-1124, species assumed): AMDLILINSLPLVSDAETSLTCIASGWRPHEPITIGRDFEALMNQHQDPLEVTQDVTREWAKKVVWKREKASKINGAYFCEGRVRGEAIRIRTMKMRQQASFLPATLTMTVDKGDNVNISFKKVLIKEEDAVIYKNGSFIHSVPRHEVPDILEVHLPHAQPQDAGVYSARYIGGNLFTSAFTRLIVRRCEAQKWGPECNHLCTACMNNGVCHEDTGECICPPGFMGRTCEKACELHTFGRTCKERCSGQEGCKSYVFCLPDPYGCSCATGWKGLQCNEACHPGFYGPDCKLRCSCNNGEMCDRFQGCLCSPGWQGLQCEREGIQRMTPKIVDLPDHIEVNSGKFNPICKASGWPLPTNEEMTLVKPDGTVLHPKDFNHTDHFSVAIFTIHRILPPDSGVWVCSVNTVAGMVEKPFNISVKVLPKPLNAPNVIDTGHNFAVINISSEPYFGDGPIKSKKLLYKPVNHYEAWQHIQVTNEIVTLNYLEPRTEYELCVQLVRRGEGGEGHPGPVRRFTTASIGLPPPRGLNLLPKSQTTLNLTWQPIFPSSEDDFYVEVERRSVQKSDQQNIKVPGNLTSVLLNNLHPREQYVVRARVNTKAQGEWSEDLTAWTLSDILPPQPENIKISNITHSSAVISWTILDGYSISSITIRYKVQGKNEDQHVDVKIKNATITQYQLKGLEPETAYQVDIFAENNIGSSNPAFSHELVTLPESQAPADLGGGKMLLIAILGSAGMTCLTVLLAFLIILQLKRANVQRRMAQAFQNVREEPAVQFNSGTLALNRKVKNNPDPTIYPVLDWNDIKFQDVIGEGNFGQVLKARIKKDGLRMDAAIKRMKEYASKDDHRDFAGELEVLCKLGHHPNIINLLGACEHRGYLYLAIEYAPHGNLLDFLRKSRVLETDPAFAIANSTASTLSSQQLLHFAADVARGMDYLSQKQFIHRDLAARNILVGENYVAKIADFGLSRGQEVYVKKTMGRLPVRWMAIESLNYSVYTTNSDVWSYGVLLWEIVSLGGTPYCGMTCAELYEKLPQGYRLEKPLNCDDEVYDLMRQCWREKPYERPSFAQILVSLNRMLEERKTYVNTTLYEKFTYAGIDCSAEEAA
Protocol: as §1, §2

**Q.** “C AYE AYE AYE K EYA EYA EYA K AYA EYE R (CAYEAYEAYEKEYAEYAEYAKAYAEYER; tyrosine kinase substrate peptide) [BRB1]” was tested. Which “Signal to Noise ratio with BRB1 Peptide” value [1] did it give?
**A.** Its value is 8.4.

**Q.** And the “Signal to Noise ratio with BRB1 Peptide” value [2]?
**A.** The value was 12.3.

**Q.** What about the “Signal to Noise ratio with BRB1 Peptide” value [3] of the same sequence?
**A.** Its value is 32.5.

**Q.** What about the “Signal to Noise ratio with BRB1 Peptide” value [4] of the same sequence?
**A.** The value was 24.6.

**Q.** And the “Signal to Noise ratio with BRB1 Peptide” value [5]?
**A.** The value was 6.8.

**Q.** And the “Signal to Noise ratio with BRB1 Peptide” value [6]?
**A.** The value was 7.6.

**Q.** What about the “Signal to Noise ratio with BRB1 Peptide” value [7] of the same sequence?
**A.** Its value is 8.8.

**Q.** What about the “Signal to Noise ratio with BRB1 Peptide” value [8] of the same sequence?
**A.** Its value is 35.5.

**Q.** What about the “Signal to Noise ratio with BRB1 Peptide” value [9] of the same sequence?
**A.** Its value is 1.1.

**Q.** And the “Signal to Noise ratio with BRB1 Peptide” value [10]?
**A.** Its value is 17.7.
